Substitutions are numbered along the chain they refer to.

One test addresses T1, hCG (人绒毛膜促性腺激素) (human, UniProt P0DN86 21-165).
T1 construct: In the resin experiments hCG comes from the supernatant of CHO cells that express it stably
In words: affinity chromatography, VHH coupled to CNBr-agarose, hCG from CHO supernatant, elution at pH 3, SDS-PAGE.

The target in test [1] is T2, SEQ ID NO:1蛋白 (FSH、hCG、TSH、FSH-CTP和hLH共同α链) (Homo sapiens (Human), UniProt P01215 25-116).
T2 construct: Immunogen for the alpaca and target of the Phage ELISA screen
In words: Phage ELISA screen, VHH displayed on phage.

The target of the next test is hLH (人促黄体生成素) (human, UniProt P01229 21-141). Briefly: affinity purification on VHH-agarose (CNBr), SDS-PAGE of the eluate.
Test [2] concerns the target T3, FSH (卵泡刺激素) (human, UniProt P01225 19-129).
T3 construct: also called hFSH
In words: ELISA, plate coated with 10 ug/ml FSH, VHH from 1 mg/ml in 2-fold steps, detection with anti-6xHis-HRP. In general terms: ELISA stands for enzyme-linked immunosorbent assay.

Test [3] deals with T3, FSH (卵泡刺激素). In words: affinity purification on VHH-agarose (CNBr), SDS-PAGE of the eluate.

T1 sequence (chain, as listed by the source, chain 1 of 2, other chains not shown): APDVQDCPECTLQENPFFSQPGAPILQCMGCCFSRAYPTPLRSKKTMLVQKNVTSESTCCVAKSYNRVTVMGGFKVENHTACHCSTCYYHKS
T2 sequence (P01215 25-116 limits assumed): as the sequence (chain, as listed by the source, chain 1 of 2, other chains not shown) above
Chain of hLH (人促黄体生成素) (chain, as listed by the source, chain 1 of 2): as the sequence (chain, as listed by the source, chain 1 of 2, other chains not shown) above
Chain of hLH (人促黄体生成素) (P01229 21-141, chain 2 of 2): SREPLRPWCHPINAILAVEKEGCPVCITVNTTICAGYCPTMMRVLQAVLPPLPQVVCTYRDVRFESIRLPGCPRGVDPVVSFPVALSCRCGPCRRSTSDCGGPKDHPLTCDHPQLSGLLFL
T3 sequence (chain, as listed by the source, chain 1 of 2): as the sequence (chain, as listed by the source, chain 1 of 2, other chains not shown) above
T3 sequence (P01225 19-129, chain 2 of 2): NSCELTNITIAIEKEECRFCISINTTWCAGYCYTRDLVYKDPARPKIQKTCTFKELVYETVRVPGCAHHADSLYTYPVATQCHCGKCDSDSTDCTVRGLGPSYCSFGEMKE

B1: SEQ ID NO:16蛋白 (VHH-sgs-HHHHHH) (VHH)
VHH: QVQVVESGGGLVQAGDSLRLSCAASGRTFSSYAMGWFRQAPGKEREAVAAITWSGGSTYYADSVKGRFTISRDNTKNTVYLQMNSLKPEDTAVYYCAARDRADGSSWWDYWGQGTQVTVSS
Consider B1, for which the binding result (with hCG (人绒毛膜促性腺激素); in test [1]) was “binds” each time.

B2: SEQ ID NO:18蛋白 (VHH-sgs-HHHHHH) (VHH)
VHH: B1 VHH with V4L, A14T, D16G, K43E, D62A, K65Q, T75A
As for B2, the binding result (in the test with hCG (人绒毛膜促性腺激素); in test [1]) was “binds” each time.

B3: SEQ ID NO:17蛋白 (VHH-sgs-HHHHHH) (VHH)
VHH: B1 VHH with V4L, A14T, D16G, K43E, I51L, T52S, D62A, K65Q, T75A
notes: In the resin experiments it is coupled to agarose
For the molecule B3, the binding result (with hLH (人促黄体生成素); with FSH (卵泡刺激素) [2]; in test [1]) was “binds” each time.

B4: 1G9E (SEQ ID NO:12, VHH-sgs-HHHHHH) (VHH)
VHH: QVQLQESGGGLVQAGGSLRLSCAASGRTGSTYDMGWFRQAPGKERESVAAINWDSARTYYASSVRGRFTISRDNAKKTVYLQMNSLKPEDTAVYTCGAGEGGTWDSWGQGTQVTVSS
Turning to B4, the binding result with hCG (人绒毛膜促性腺激素) is “binds”.

B5: SEQ ID NO:11蛋白 (1G9E突变体, VHH-sgs-HHHHHH) (VHH)
VHH: B4 VHH with Y59H
notes: Expressed in E. coli BL21 Star(DE3) and purified on nickel; In the resin experiments it is coupled to agarose
B5: the binding result with FSH (卵泡刺激素) [3] and in the test with hLH (人促黄体生成素) was “binds” throughout.

The values above are taken from patent publication CN113583125A (SUZHOU CENTERGENE PHARMACEUTICALS CO LTD, dated 2021).
